Publication PMC7555777, “Cataract-Associated New Mutants S175G/H181Q of βΒ2-Crystallin and P24S/S31G of γD-Crystallin Are Involved in Protein Aggregation by Structural Changes” (International Journal of Molecular Sciences, 2020)

Target: the molecule itself
Experiment: SEC; Superdex 200 HR 10/30 in PBS; 450 µg/100 µL protein loaded; 0.5 mL/min; UV 280 nm; markers albumin (66.4 kDa) and α-lactalbumin (14.2 kDa); dimer in rapid equilibrium with monomer

Row | Protein | binding result
1 | wild-type βB2-crystallin (natural protein, human, human beta-crystallin B2 (CRBB2 cDNA from a human cDNA library in pGEX-4t-1); Residues left by the vector after the thrombin cut are not described; also called WT βB2-crystallin; Beta-crystallin B2; source: E. coli BL21 (DE3), purified (glutathione-agarose, GST cut off with thrombin)) ASDHQTQAGKPQSLNPKIIIFEQENFQGHSHELNGPCPNLKETGVEKAGSVLVQAGPWVGYEQANCKGEQFVFEKGEYPRWDSWTSSRRTDSLSSLRPIKVDSQEHKIILYENPNFTGKKMEIIDDDVPSFHAHGYQEKVSSVRVQSGTWVGYQYPGYRGLQYLLEKGDYKDSSDFGAPHPQVQSVRRIRDMQWHQRGAFHPSN | binds
2 | S175G/H181Q mutant βB2-crystallin (natural protein, human, human beta-crystallin B2 (CRBB2 cDNA in pGEX-4t-1) with the two changes found in cataract lenses, made by site-directed mutagenesis; Residues left by the vector after the thrombin cut are not described; also called S175G/H181Q βB2-crystallin; CRBB2 S175G/H181Q; source: E. coli BL21 (DE3), purified (glutathione-agarose, GST cut off with thrombin)) ASDHQTQAGKPQSLNPKIIIFEQENFQGHSHELNGPCPNLKETGVEKAGSVLVQAGPWVGYEQANCKGEQFVFEKGEYPRWDSWTSSRRTDSLSSLRPIKVDSQEHKIILYENPNFTGKKMEIIDDDVPSFHAHGYQEKVSSVRVQSGTWVGYQYPGYRGLQYLLEKGDYKDSGDFGAPQPQVQSVRRIRDMQWHQRGAFHPSN | binds
